Assay results taken from US20160017037A1 (GlaxoSmithKline, published 2016).

T1: Fc-tagged recombinant soluble LAG-3 (IMP321) (human, UniProt P18627 23-434)
T1 construct: also called LAG3-Ig molecule IMP321; recombinant sLAG-3; not shown: Fc / Ig part
T1 sequence (looked up): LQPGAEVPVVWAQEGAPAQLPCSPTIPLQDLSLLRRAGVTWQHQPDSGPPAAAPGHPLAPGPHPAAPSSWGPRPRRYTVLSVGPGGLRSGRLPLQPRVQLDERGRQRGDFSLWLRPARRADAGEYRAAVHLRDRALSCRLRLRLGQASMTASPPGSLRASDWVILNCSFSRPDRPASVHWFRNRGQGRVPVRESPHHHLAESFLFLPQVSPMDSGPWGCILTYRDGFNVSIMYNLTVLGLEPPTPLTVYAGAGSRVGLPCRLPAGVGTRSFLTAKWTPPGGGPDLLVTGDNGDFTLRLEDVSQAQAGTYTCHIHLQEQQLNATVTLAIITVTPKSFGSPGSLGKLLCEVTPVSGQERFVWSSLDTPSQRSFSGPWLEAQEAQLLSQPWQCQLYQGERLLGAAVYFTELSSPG


Molecular target: T1, Fc-tagged recombinant soluble LAG-3 …
Experiment: SPR Biacore 3000, off-rate comparison with IMP731, IMP321 analyte at 64 nM
Experimental: The binding kinetics of the purified antibodies for a sLAG-3 molecule were assessed by SPR using a Biacore™ 3000. A goat anti-human kappa antibody (Southern Biotech, Catalogue No. 2060-01) was immobilised on a CM5 chip by primary amine coupling. Humanised anti-LAG3 antibodies were captured on this surface and the LAG3-Ig molecule IMP321 (Chrystelle Brignone, Caroline Grygar, Manon Marcu, Knut Schakel, Frederic Triebel, The Journal of Immunology, 2007, 179: 4202-4211) used as the analyte at 64 nM with a buffer injection (i.e. 0 nM) used to double reference the binding curves. Regeneration was with 10 mM Glycine, pH1.5. The run was carried out on the Biacore™ 3000, using HBS-EP as running buffer and at 25° C. Sensorgrams were normalised for binding at maximal association and off-rates compared against IMP731 by visual inspection of the sensorgram profiles.

Row | Binder | Rank order of off-rates
1 | H1L7 (antibody, human IgG1, kappa, V domains shown, Humanised anti-LAG-3 variant, HEK 293 6E expressed) VH: QVQLQESGPGLVKPSETLSLTCTVSGFSLTAYGVNWIRQPPGKGLEWIGMIWDDGSTDYNSALKSRVTISVDTSKNQFSLKLSSVTAADTAVYYCAREGDVAFDYWGQGTLVTVSS VL: DIQMTQSPSSLSASVGDRVTITCKSSQSLLNPSNQKNYLAWYQQKPGKAPKLLVYFASTRDSGVPSRFSGSGSGTDFTLTISSLQPEDFATYYCLQHFGTPPTFGQGTKLEIKR | 2
2 | J7L7 (antibody, human IgG1, kappa, V domains shown, Humanised anti-LAG-3 variant, HEK 293 6E expressed) VH: QVQLVQSGAEVKKPGSSVKVSCKASGFSLTAYGVNWVRQAPGQGLEWMGMIWDDGSTDYNSALKSRVTITADKSTSTAYMELSSLRSEDTAVYYCAREGDVAFDYWGQGTLVTVSS VL: DIQMTQSPSSLSASVGDRVTITCKSSQSLLNPSNQKNYLAWYQQKPGKAPKLLVYFASTRDSGVPSRFSGSGSGTDFTLTISSLQPEDFATYYCLQHFGTPPTFGQGTKLEIKR | 3
3 | H0L7 (antibody, human IgG1, kappa, V domains shown, Humanised anti-LAG-3 variant, HEK 293 6E expressed) VH: QVQLQESGPGLVKPSETLSLTCTVSGGSISAYGVNWIRQPPGKGLEWIGMIWDDGSTDYNSALKSRVTISVDTSKNQFSLKLSSVTAADTAVYYCAREGDVAFDYWGQGTLVTVSS VL: DIQMTQSPSSLSASVGDRVTITCKSSQSLLNPSNQKNYLAWYQQKPGKAPKLLVYFASTRDSGVPSRFSGSGSGTDFTLTISSLQPEDFATYYCLQHFGTPPTFGQGTKLEIKR | 10
4 | J11L7 (antibody, human IgG1, kappa, V domains shown, Humanised anti-LAG-3 variant, HEK 293 6E expressed) VH: QVQLVQSGAEVKKPGSSVKVSCKASGFSLTAYGVNWVRQAPGQGLEWMGMIWDDGSTDYDSALKSRVTITADKSTSTAYMELSSLRSEDTAVYYCAREGDVAFDYWGQGTLVTVSS VL: DIQMTQSPSSLSASVGDRVTITCKSSQSLLNPSNQKNYLAWYQQKPGKAPKLLVYFASTRDSGVPSRFSGSGSGTDFTLTISSLQPEDFATYYCLQHFGTPPTFGQGTKLEIKR | 5
5 | H4L7 (antibody, human IgG1, kappa, V domains shown, Humanised anti-LAG-3 variant, HEK 293 6E expressed) VH: QVQLQESGPGLVKPSETLSLTCTVSGFSLTAYGVNWIRQPPGKGLEWLGMIWDDGSTDYNSALKSRLTISKDNSKNQVSLKLSSVTAADTAVYYCAREGDVAFDYWGQGTLVTVSS VL: DIQMTQSPSSLSASVGDRVTITCKSSQSLLNPSNQKNYLAWYQQKPGKAPKLLVYFASTRDSGVPSRFSGSGSGTDFTLTISSLQPEDFATYYCLQHFGTPPTFGQGTKLEIKR | 4
6 | H2L7 (antibody, human IgG1, kappa, V domains shown, Humanised anti-LAG-3 variant, HEK 293 6E expressed) VH: QVQLQESGPGLVKPSETLSLTCTVSGFSLTAYGVNWIRQPPGKGLEWIGMIWDDGSTDYNSALKSRVTISKDNSKNQVSLKLSSVTAADTAVYYCAREGDVAFDYWGQGTLVTVSS VL: DIQMTQSPSSLSASVGDRVTITCKSSQSLLNPSNQKNYLAWYQQKPGKAPKLLVYFASTRDSGVPSRFSGSGSGTDFTLTISSLQPEDFATYYCLQHFGTPPTFGQGTKLEIKR | 6
7 | H7L7 (antibody, human IgG1, kappa, V domains shown, Humanised anti-LAG-3 variant, HEK 293 6E expressed) VH: QVQLQESGPGLVKPSETLSLTCTVSGGSISAYGVNWIRQPPGKGLEWIGMIWDDGSTDYDSALKSRVTISVDTSKNQFSLKLSSVTAADTAVYYCAREGDVAFDYWGQGTLVTVSS VL: DIQMTQSPSSLSASVGDRVTITCKSSQSLLNPSNQKNYLAWYQQKPGKAPKLLVYFASTRDSGVPSRFSGSGSGTDFTLTISSLQPEDFATYYCLQHFGTPPTFGQGTKLEIKR | 8
8 | J13L7 (antibody, human IgG1, kappa, V domains shown, Humanised anti-LAG-3 variant, HEK 293 6E expressed) VH: QVQLVQSGAEVKKPGSSVKVSCKASGGTFSAYGVNWVRQAPGQGLEWMGMIWDDGSTDYDSALKSRVTITADKSTSTAYMELSSLRSEDTAVYYCAREGDVAFDYWGQGTLVTVSS VL: DIQMTQSPSSLSASVGDRVTITCKSSQSLLNPSNQKNYLAWYQQKPGKAPKLLVYFASTRDSGVPSRFSGSGSGTDFTLTISSLQPEDFATYYCLQHFGTPPTFGQGTKLEIKR | 7
9 | J0L7 (antibody, human IgG1, kappa, V domains shown, Humanised anti-LAG-3 variant, HEK 293 6E expressed) VH: QVQLVQSGAEVKKPGSSVKVSCKASGGTFSAYGVNWVRQAPGQGLEWMGMIWDDGSTDYNSALKSRVTITADKSTSTAYMELSSLRSEDTAVYYCAREGDVAFDYWGQGTLVTVSS VL: DIQMTQSPSSLSASVGDRVTITCKSSQSLLNPSNQKNYLAWYQQKPGKAPKLLVYFASTRDSGVPSRFSGSGSGTDFTLTISSLQPEDFATYYCLQHFGTPPTFGQGTKLEIKR | 9
